Data set [1] deals with CO[C@H]1/C=C/O[C@@]2(C)Oc3c(C)c(O)c4c(O)c(c(/C=N/N5CCN(C)CC5)c(O)c4c3C2=O)NC(=O)/C(C)=C\C=C\[C@H](C)[C@H](O)[C@@H](C)[C@@H](O)[C@@H](C)[C@H](OC(C)=O)[C@@H]1C. As to the kind of experiment: steady-state oxygen consumption (oxygraph). To be noted: 1 mM NADPH, 100 mM sodium phosphate pH 7.5, 25°C. Type of data set: biochemical, Nocardia farcinica. The text has this: (§1) steady-state oxygen consumption (oxygraph) on RifMO (rifampicin monooxygenase)

The test system of data set [2] is NC(=O)C1=CN([C@@H]2O[C@H](COP(=O)(O)OP(=O)(O)OC[C@H]3O[C@@H](n4cnc5c(N)ncnc54)[C@H](O)[C@@H]3O)[C@@H](O)[C@H]2O)C=CC1. As to the kind of experiment: steady-state oxygen consumption (oxygraph). Format: biochemical, Nocardia farcinica. To be noted: 30 μM Rif, 100 mM sodium phosphate pH 7.5, 25°C, varied: cofactor.
From the text: as §1

The subject of data set [3] is NC(=O)C1=CN([C@@H]2O[C@H](COP(=O)(O)OP(=O)(O)OC[C@H]3O[C@@H](n4cnc5c(N)ncnc54)[C@H](OP(=O)(O)O)[C@@H]3O)[C@@H](O)[C@H]2O)C=CC1. As to the kind of experiment: steady-state oxygen consumption (oxygraph). The following applies: 30 μM Rif, 100 mM sodium phosphate pH 7.5, 25°C, varied: cofactor. Type of data set: biochemical, Nocardia farcinica.
From the text: as §1

Data set [4] concerns the target T1, RifMO (rifampicin monooxygenase) (Nocardia farcinica, UniProt Q5YTV5).
T1 construct: gene rox; full-length, codon optimized, pET15b N-terminal 6xHis tag cleaved with thrombin, expressed in E. coli
As to the kind of experiment: flavin absorbance change at […] nm (spectral titration). Format: binding.

In data set [5] the target is T1, RifMO (rifampicin monooxygenase). As to the kind of experiment: steady-state oxygen consumption (oxygraph). Type of data set: biochemical. To be noted: substrate inhibition by NADPH; 30 μM Rif, 100 mM sodium phosphate pH 7.5, 25°C.
From the text: as §1

In general, Km refers to the substrate concentration at which the rate is half of its maximum. In general, kcat refers to the maximal rate divided by the concentration of active sites. In general, kcat/Km refers to the turnover number divided by the Michaelis constant. Broadly, the Kd is the constant that tells how readily two partners part at equilibrium. A lower Kd goes with tighter binding.

T1 sequence (Q5YTV5 whole entry): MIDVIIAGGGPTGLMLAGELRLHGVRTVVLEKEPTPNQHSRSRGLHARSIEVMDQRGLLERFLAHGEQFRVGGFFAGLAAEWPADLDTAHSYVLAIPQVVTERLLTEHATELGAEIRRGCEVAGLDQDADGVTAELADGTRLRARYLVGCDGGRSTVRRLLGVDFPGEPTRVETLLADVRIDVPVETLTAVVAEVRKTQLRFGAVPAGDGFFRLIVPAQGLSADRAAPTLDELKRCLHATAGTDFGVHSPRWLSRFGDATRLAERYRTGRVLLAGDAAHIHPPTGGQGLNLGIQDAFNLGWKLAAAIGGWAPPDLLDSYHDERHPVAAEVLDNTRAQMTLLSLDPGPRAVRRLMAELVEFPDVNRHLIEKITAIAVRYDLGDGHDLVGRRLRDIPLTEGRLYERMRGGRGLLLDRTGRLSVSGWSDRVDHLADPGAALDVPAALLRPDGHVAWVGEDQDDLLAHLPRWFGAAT

Turning to “RifMO (rifampicin monooxygenase) (Nocardia farcinica IFM 10152)”, in data set [1], the Km came out at 5.8 ± 0.88 µM, the kcat is 4 ± 0.16 s⁻¹ and the kcat/Km is 700000 ± 81300 M⁻¹ s⁻¹. In data set [2], the Km was determined as 266 ± 25 µM, the kcat was determined as 3.3 ± 0.06 s⁻¹ and the kcat/Km was 12600 ± 1000 M⁻¹ s⁻¹. For the same compound, in data set [3], the Km came to 90 ± 10 µM, the kcat amounted to 4 ± 0.1 s⁻¹ and the kcat/Km was 43100 ± 3700 M⁻¹ s⁻¹.

In data set [4], `CO[C@H]1/C=C/O[C@@]2(C)Oc3c(C)c(O)c4c(O)c(c(/C=N/N5CCN(C)CC5)c(O)c4c3C2=O)NC(=O)/C(C)=C\C=C\[C@H](C)[C@H](O)[C@@H](C)[C@@H](O)[C@@H](C)[C@H](OC(C)=O)[C@@H]1C` [Rif, rifampicin] had a Kd of 9.5 ± 2.5 µM.

Consider `NC(=O)C1=CN([C@@H]2O[C@H](COP(=O)(O)OP(=O)(O)OC[C@H]3O[C@@H](n4cnc5c(N)ncnc54)[C@H](OP(=O)(O)O)[C@@H]3O)[C@@H](O)[C@H]2O)C=CC1` [NADPH], for which the “KI” value in data set [5] was 33000 ± 4000 µM.

The record behind these values is PMC5051949, “Mechanism of Rifampicin Inactivation in Nocardia farcinica” (PLoS ONE, 2016).
